Assay results: publication PMC8078012 (Cell systems, 2020)

Biological target: MBP-GSK3β-HA-His (human, UniProt P49841 1-420, phosphotyrosine at 216 (activation loop))
Assay: BLI

Sequence of MBP-GSK3β-HA-His (P49841 whole entry): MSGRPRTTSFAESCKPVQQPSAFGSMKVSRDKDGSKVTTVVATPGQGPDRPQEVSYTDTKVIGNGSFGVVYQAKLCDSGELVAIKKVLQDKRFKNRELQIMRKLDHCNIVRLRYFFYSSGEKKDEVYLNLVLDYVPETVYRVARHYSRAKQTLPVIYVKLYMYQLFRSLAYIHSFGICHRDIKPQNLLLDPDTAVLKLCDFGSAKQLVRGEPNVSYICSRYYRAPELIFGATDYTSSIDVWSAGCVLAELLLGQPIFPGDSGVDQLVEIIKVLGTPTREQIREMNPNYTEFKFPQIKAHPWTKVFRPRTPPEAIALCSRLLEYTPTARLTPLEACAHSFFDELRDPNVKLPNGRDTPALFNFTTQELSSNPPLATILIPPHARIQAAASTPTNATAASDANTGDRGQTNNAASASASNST

B1: MBP-Axin_(384-518)-His (miniAxin) (domain or fragment, human, UniProt O15169-2 384-518, looked up)
chain: EPQKFAEELIHRLEAVQRTREAEEKLEERLKRVRMEEEGEDGDPSSGPPGPCHKLPPAPAWHHFPPRCVDMGCAGLRDAHEENPESILDEHVQRVLRTPGRQSPGPGHRSPDSGHVAKMPVALGGAASGHGKHVP
modifications: biotin (NHS-PEG4-biotin, molar coupling ratio 1:1) where it was immobilised (assay with GSK3β)
In the case of B1, the Kd is reported as 0.016 µM.
